How the values were obtained:
healthy adults [1] = test: Pharmacodynamics: bone turnover markers (serum BSAP, P1NP, CTx; urine NTx); type: in vivo, human; conditions: MAD
Method: The PD endpoints included albumin‐adjusted sCa, fractional excretion of calcium, sP, renal tubular maximum reabsorption of phosphate/glomerular filtration rate (TMP/GFR), intact endogenous PTH(1‐84), osteoblastic bone formation markers (serum bone‐specific alkaline phosphatase [BSAP] and P1NP), osteoclastic bone resorption markers (urine NTx and serum CTx), sMg, and 1,25‐dihydroxyvitamin D. PK samples were collected predose and at regular intervals postdose through 96 hours for the SAD cohorts and through day14 for the MAD cohorts.

healthy adults [2] = test: Pharmacodynamics: renal tubular maximum reabsorption of phosphate/GFR (TMP/GFR); type: in vivo, human; conditions: MAD cohorts, near steady-state (days 8 to 10); linear regression on dose, p = .0022
Method: The ratio, TMP/GFR is based on sP, urine phosphate (uP), serum creatinine (sCr), and urine creatinine (uCr) and was calculated as follows[18]: (2) TMP/GFR=sP–uPxsCr/uCr
All statistical analyses were performed using SAS 9.3 or higher (SAS Institute, Inc., Cary, NC, USA). Summary statistics were reported for continuous data, including mean, standard deviation, standard error, median, minimum, and maximum, whereas number and percentage of subjects within treatment groups were reported for categorical data. For sP and TMP/GFR, a linear regression model was performed for the change from baseline, with dose and baseline as independent variables at near steady‐state. Near steady‐state was defined as the average of predose values on day 8, 9, and 10. Dose was defined as a continuous variable where placebo was considered zero.

healthy adults [3] = test: Pharmacodynamics: 1,25-dihydroxyvitamin D; type: in vivo, human; conditions: healthy subjects; data not shown
[4] = tested on: anti-PTH binding antibodies; test: Anti-PTH binding antibodies, electrochemiluminescence bridging assay; type: in vivo, human; conditions: MAD cohorts, serum predose and day 14; screening and confirmatory assay
Method: Twice‐daily 12‐hour urine samples (including calcium, phosphorus, magnesium, and creatinine) were also collected. In MAD cohorts, serum samples collected from TransCon PTH‐treated and placebo‐treated subjects predose and postdose on day 14 were analyzed for anti‐PTH binding antibodies by BioAgilytix (Durham, NC, USA) using an electrochemiluminescence bridging assay. Samples were analyzed using a multitiered approach consisting of a screening assay and a confirmatory assay.

[5] = Pharmacokinetics of Free PTH after 10 daily s.c. doses of TransCon PTH (MAD cohorts); conditions: for Free PTH AUC0-24h / Free PTH t½ / Free PTH Cmax: geometric mean (CV%); for Free PTH tmax: median (min-max)
Method: Subjects attended a screening visit; those who met eligibility criteria were randomly assigned to a SAD or MAD cohort (n = 10/cohort; eight active and two placebo) and received a single or multiple dose(s) of TransCon PTH, respectively, via a syringe and 31G 8‐mm needle s.c. to the abdomen. Single TransCon PTH doses ranged from 3.5 to 124 μg PTH(1‐34) (containing PTH(1‐34) [Bachem AG, Bubendorf, Switzerland], identical to the first 34 amino acids of rhPTH). Multiple TransCon PTH doses administered daily for 10 days ranged from 3.5 to 24 μg PTH(1‐34)/day.
The primary PK endpoints therefore included Free PTH (defined as the sum of Free PTH(1‐34) and Free PTH(1‐33)) as well as TransCon PTH.
The PK samples were analyzed by PRA Health Sciences (Assens, the Netherlands); Free PTH was quantified using protein precipitation, liquid‐liquid extraction, and solid‐phase extraction followed by ultra high‐performance liquid chromatography with tandem mass spectrometry detection measuring the two peptides, PTH(1‐34) and PTH(1‐33), by collection of both transitions simultaneously. Free PTH was calculated only if samples contained quantifiable levels of both Free PTH(1‐34) and Free PTH(1‐33); ie, above 1.40 and 0.958 pg/mL for Free PTH(1‐34) and Free PTH(1‐33), respectively. No lower limit of quantification was calculated for Free PTH because the ratio between Free PTH(1‐34) and Free PTH(1‐33) is not constant.
The PK parameters were calculated using Phoenix WinNonlin, version 6.4 (Certara USA, Inc., Princeton, NJ, USA). For Free PTH, tmax was defined as the time to maximum observed concentration and Cmax was defined as the maximum observed concentration. […] Peak‐to‐trough was calculated as the ratio of Cmax to C24h at steady‐state.

[6] = MAD, 12 μg PTH(1-34)/day s.c. x 10 days, n = 6
[7] = MAD, 16 μg PTH(1-34)/day s.c. x 10 days, n = 7
[8] = MAD, 20 μg PTH(1-34)/day s.c. x 10 days, n = 6
[9] = MAD, 24 μg PTH(1-34)/day s.c. x 10 days, n = 3

TransCon PTH: long-acting, essentially inactive prodrug: PTH(1-34) transiently bound to an inert 40 kDa mPEG carrier via a proprietary autocleaving linker
serum BSAP (osteoblastic bone formation marker) (healthy adults [1]; 10 days of administration, compared to placebo): neither the osteoblastic bone formation marker, BSAP (Fig. 8) or P1NP (data not shown), increased
P1NP (osteoblastic bone formation marker) (healthy adults [1]; 10 days of administration, compared to placebo, data not shown): neither the osteoblastic bone formation marker, BSAP (Fig. 8) or P1NP (data not shown), increased
time course of serum CTx levels (healthy adults [1]; Free PTH at steady-state until at least day 11): declined from day 8 to baseline by day 13
serum CTx (osteoclastic bone resorption marker) (healthy adults [1]; over 10 days of administration, compared to placebo): increased modestly
urine NTx (osteoclastic bone resorption marker) (healthy adults [1]; over 10 days, data not shown): no consistent increase
change in TMP/GFR from baseline (healthy adults [2]): significant dose‐dependent decrease
1,25-dihydroxyvitamin D levels (healthy adults [3]): did not change significantly
anti-PTH antibodies [4]: No anti‐PTH antibodies were detected
Free PTH AUC0-24h ([5]; MAD, 12 μg PTH(1-34)/day s.c. x 10 days, healthy adults, plasma, UHPLC-MS/MS, n = 5): 122 (13.4) (n = 5) h*pg/mL
Free PTH t½ ([5]; MAD, 12 μg PTH(1-34)/day s.c. x 10 days, n = 4): 64.8 (39.2) (n = 4) h
Free PTH Cmax [5, 6]: 6.24 (13.1) (n = 6) pg/mL
Free PTH tmax [5, 6]: 4.0 (4.0–16.0) (n = 6) h
Free PTH t½ ([5]; MAD, 16 μg PTH(1-34)/day s.c. x 10 days, n = 4): 60.0 (20.3) (n = 4) h
Free PTH AUC0-24h ([5]; MAD, 16 μg PTH(1-34)/day s.c. x 10 days, n = 5): 152 (9.4) (n = 5) h*pg/mL
Free PTH Cmax [5, 7]: 6.87 (16.8) (n = 7) pg/mL
Free PTH tmax [5, 7]: 8.0 (4.0–12.0) (n = 7) h
Free PTH t½ ([5]; MAD, 20 μg PTH(1-34)/day s.c. x 10 days, n = 5): 51.7 (44.5) (n = 5) h
Free PTH AUC0-24h [5, 8]: 165 (21.7) (n = 6) h*pg/mL
Free PTH Cmax [5, 8]: 8.30 (21.4) (n = 6) pg/mL
Free PTH tmax [5, 8]: 6.1 (4.0–16.1) (n = 6) h
Free PTH AUC0-24h [5, 9]: 231 (24.2) (n = 3) h*pg/mL
Free PTH Cmax [5, 9]: 11.1 (27.6) (n = 3) pg/mL
Free PTH t½ [5, 9]: 69.0 (22.3) (n = 3) h
Free PTH tmax [5, 9]: 7.9 (4.0–12.0) (n = 3) h
Free PTH level ([5]; MAD, TransCon PTH 12 μg PTH(1-34)/day): 5 pg/mL
mean effective half-life of Free PTH ([5]; after multiple daily s.c. dosings, healthy adults): approximately 60 hours
